# Results taken from patent US20260028387A1 (published 2026).
# B1: VLPKLYVKL (SEQ ID NO: 31) (peptide)
# peptide: VLPKLYVKL
# notes: synthetic peptide; source genes RPS26P11, RPS26, RPS26P28, RPS26P15, RPS26P25, RPS26P58
# B2: GLLVGSEKVTM (SEQ ID NO: 69) (peptide)
# peptide: GLLVGSEKVTM
# notes: synthetic peptide; source genes KRT14, KRT16, KRT16P3
# B3: STYGGGLSV (SEQ ID NO: 1) (peptide)
# peptide: STYGGGLSV
# notes: synthetic peptide; source gene KRT14, KRT16
# B4: PAVLQSSGLYSL (SEQ ID NO: 68) (peptide)
# peptide: PAVLQSSGLYSL
# notes: synthetic peptide; source genes IGHV4-31, IGHG1, IGHG2, IGHG3, IGHG4, IGHM
# B5: FVLDTSESV (SEQ ID NO: 70) (peptide)
# peptide: FVLDTSESV
# notes: synthetic peptide; source genes COL6A1, COL6A2
# B6: YTAQIGADIAL (SEQ ID NO: 46) (peptide)
# peptide: YTAQIGADIAL
# notes: synthetic peptide; source genes TPSB2, TPSAB1
# B7: YQDLLNVKM (SEQ ID NO: 54) (peptide)
# peptide: YQDLLNVKM
# notes: synthetic peptide; source genes DES, NEFM, NEFH, NEFL, VIM, INA
# B8: MISRTPEV (SEQ ID NO: 17) (peptide)
# peptide: MISRTPEV
# notes: synthetic peptide; source genes F7, IGHV4-31, IGHG1, IGHG2, IGHG3, IGHG4, IGHM
# B9: LAYTLGVKQL (SEQ ID NO: 63) (peptide)
# peptide: LAYTLGVKQL
# notes: synthetic peptide; source genes EEF1A1P5, EEF1A1, EEF1A2
# Target: T1, HLA-A*02:01 (peptide-receptive MHC class I molecule of the UV-ligand exchange assay) (human)
# T1 construct: MHC monomer first loaded with a UV-sensitive peptide (not identified) that is cleaved by UV light and exchanged for the test peptide; captured on streptavidin plates
# Assay: UV-ligand exchange, anti-b2m ELISA; peptide exchange yield grade (>=10% = +; >=20% = ++; >=50 = +++; >=75% = ++++)
# Text: Candidate peptides for T cell based therapies according to the present invention were further tested for their MHC binding capacity (affinity). The individual peptide-MHC complexes were produced by UV-ligand exchange, where a UV-sensitive peptide is cleaved upon UV-irradiation, and exchanged with the peptide of interest as analyzed. Only peptide candidates that can effectively bind and stabilize the peptide-receptive MHC molecules prevent dissociation of the MHC complexes. To determine the yield of the exchange reaction, an ELISA was performed based on the detection of the light chain (β2m) of stabilized MHC complexes. The assay was performed as generally described in Rodenko et al. (Rodenko et al., 2006).
# 96 well MAXISorp plates (NUNC) were coated aver night with 2 ug/ml streptavidin in PBS at room temperature, washed 4× and blocked for 1 h at 37° C. in 2% BSA containing blocking buffer. Refolded HLA-A*02:01/MLA-001 monomers served as standards, covering the range of 15-500 ng/ml. Peptide-MHC monomers of the UV-exchange reaction were diluted 100 fold in blocking buffer. Samples were incubated for 1 h at 37° C., washed four times, incubated with 2 ug/ml HRP conjugated anti-02m for 1 h at 37° C., washed again and detected with TMB solution that is stopped with […]. Absorption was measured at 450 nm. Candidate peptides that show a high exchange yield (preferably higher than 50%, most preferred higher than 75%) are generally preferred for a generation and production of antibodies or fragments thereof, and/or T cell receptors or fragments thereof, as they show sufficient avidity to the MHC molecules and prevent dissociation of the MHC complexes.
binder,measurement,value
SMNGGVFAV (synthetic peptide; source gene SLC7A11) [SMNGGVFAV (SEQ ID NO: 67)],peptide exchange yield,20 to 50%
GLAFSLYQA (synthetic peptide; source gene SERPINH1) [GLAFSLYQA (SEQ ID NO: 40)],peptide exchange yield,20 to 50%
KLSDSATYL (synthetic peptide) [KLSDSATYL (SEQ ID NO: 23)],peptide exchange yield,50 to 75%
MLTELEKAL (synthetic peptide; source gene S100A8) [MLTELEKAL (SEQ ID NO: 45)],peptide exchange yield,20 to 50%
SLNGNQVTV (synthetic peptide; source gene QSER1) [SLNGNQVTV (SEQ ID NO: 30)],peptide exchange yield,10 to 20%
SLLDTLREV (synthetic peptide; source gene PPP4R1) [SLLDTLREV (SEQ ID NO: 59)],peptide exchange yield,50 to 75%
TQTTHELTI (synthetic peptide; source gene PCBP1) [TQTTHELTI (SEQ ID NO: 61)],peptide exchange yield,50 to 75%
IVREFLTAL (synthetic peptide; source gene CRCP) [IVREFLTAL (SEQ ID NO: 21)],peptide exchange yield,50 to 75%
GLASRILDA (synthetic peptide; source gene LAMB3) [GLASRILDA (SEQ ID NO: 12)],peptide exchange yield,50 to 75%
RLPNAGTQV (synthetic peptide; source gene ITGA6) [RLPNAGTQV (SEQ ID NO: 14)],peptide exchange yield,≥ 75%
LLSGDLIFL (synthetic peptide; source gene GJB5) [LLSGDLIFL (SEQ ID NO: 6)],peptide exchange yield,50 to 75%
YTQPFSHYGQAL (synthetic peptide; source gene RNPEP) [YTQPFSHYGQAL (SEQ ID NO: 37)],peptide exchange yield,50 to 75%
KLNDTYVNV (synthetic peptide; source gene TMEM194A) [KLNDTYVNV (SEQ ID NO: 22)],peptide exchange yield,50 to 75%
GLAPFLLNAV (synthetic peptide; source gene FAM115C) [GLAPFLLNAV (SEQ ID NO: 19)],peptide exchange yield,50 to 75%
SLDGTELQL (synthetic peptide; source gene TMEM102) [SLDGTELQL (SEQ ID NO: 29)],peptide exchange yield,50 to 75%
LLPPPPPPA (synthetic peptide; source gene ADAMTS2) [LLPPPPPPA (SEQ ID NO: 25)],peptide exchange yield,50 to 75%
LLANGVYAA (synthetic peptide; source gene ANO1) [LLANGVYAA (SEQ ID NO: 15)],peptide exchange yield,10 to 20%
LILESIPVV (synthetic peptide; source gene MAPK6) [LILESIPVV (SEQ ID NO: 58)],peptide exchange yield,20 to 50%
FLLDQVQLGL (synthetic peptide; source gene TSPAN10) [FLLDQVQLGL (SEQ ID NO: 18)],peptide exchange yield,50 to 75%
ALWLPTDSATV (synthetic peptide; source gene LAMB3) [ALWLPTDSATV (SEQ ID NO: 11)],peptide exchange yield,50 to 75%
B1,peptide exchange yield,20 to 50%
IAAIRGFLV (synthetic peptide; source gene ABHD11) [IAAIRGFLV (SEQ ID NO: 38)],peptide exchange yield,50 to 75%
ATGNDRKEAAENSL (synthetic peptide; source gene YWHAE) [ATGNDRKEAAENSL (SEQ ID NO: 44)],peptide exchange yield,50 to 75%
ASDPILYRPVAV (synthetic peptide; source gene PKM) [ASDPILYRPVAV (SEQ ID NO: 71)],peptide exchange yield,50 to 75%
SLVSEQLEPA (synthetic peptide; source gene PKP3) [SLVSEQLEPA (SEQ ID NO: 34)],peptide exchange yield,50 to 75%
LLFAGTMTV (synthetic peptide; source gene CYP2S1) [LLFAGTMTV (SEQ ID NO: 24)],peptide exchange yield,20 to 50%
B2,peptide exchange yield,50 to 75%
LLRFSQDNA (synthetic peptide; source gene LAP3) [LLRFSQDNA (SEQ ID NO: 35)],peptide exchange yield,50 to 75%
B3,peptide exchange yield,50 to 75%
MLAEKLLQA (synthetic peptide; source gene FAT1) [MLAEKLLQA (SEQ ID NO: 26)],peptide exchange yield,10 to 20%
B4,peptide exchange yield,20 to 50%
FLLRFSQDNA (synthetic peptide; source gene LAP3) [FLLRFSQDNA (SEQ ID NO: 36)],peptide exchange yield,20 to 50%
GLESEELEPEEL (synthetic peptide; source gene PABPN1) [GLESEELEPEEL (SEQ ID NO: 41)],peptide exchange yield,20 to 50%
SLSPVILGV (synthetic peptide; source gene IL36RN) [SLSPVILGV (SEQ ID NO: 13)],peptide exchange yield,≥ 75%
YMLDIFHEV (synthetic peptide; source gene HAS3) [YMLDIFHEV (SEQ ID NO: 32)],peptide exchange yield,20 to 50%
GAIDLLHNV (synthetic peptide; source gene GBP5) [GAIDLLHNV (SEQ ID NO: 55)],peptide exchange yield,20 to 50%
TQTAVITRI (synthetic peptide; source gene FAM83D) [TQTAVITRI (SEQ ID NO: 42)],peptide exchange yield,10 to 20%
B5,peptide exchange yield,50 to 75%
GLTDVIRDV (synthetic peptide; source gene FBXL18) [GLTDVIRDV (SEQ ID NO: 64)],peptide exchange yield,≥ 75%
B6,peptide exchange yield,50 to 75%
VLAEGGEGV (synthetic peptide; source gene PDPN) [VLAEGGEGV (SEQ ID NO: 16)],peptide exchange yield,50 to 75%
VAIGGVDGNVRL (synthetic peptide; source gene WDR1) [VAIGGVDGNVRL (SEQ ID NO: 52)],peptide exchange yield,20 to 50%
GLMKDIVGA (synthetic peptide; source gene KYNU) [GLMKDIVGA (SEQ ID NO: 49)],peptide exchange yield,50 to 75%
KVVGKDYLL (synthetic peptide; source gene CAPZB) [KVVGKDYLL (SEQ ID NO: 43)],peptide exchange yield,10 to 20%
VVMEELLKV (synthetic peptide; source gene CYFIP1) [VVMEELLKV (SEQ ID NO: 60)],peptide exchange yield,20 to 50%
VLASGFLTV (synthetic peptide; source gene TTPAL) [VLASGFLTV (SEQ ID NO: 47)],peptide exchange yield,≥ 75%
GLAPNTPGKA (synthetic peptide; source gene PRC1) [GLAPNTPGKA (SEQ ID NO: 57)],peptide exchange yield,50 to 75%
B7,peptide exchange yield,50 to 75%
B8,peptide exchange yield,20 to 50%
ALVEVTEHV (synthetic peptide; source gene TMEM132A) [ALVEVTEHV (SEQ ID NO: 56)],peptide exchange yield,20 to 50%
VVVTGLTLV (synthetic peptide; source gene ARHGDIA) [VVVTGLTLV (SEQ ID NO: 53)],peptide exchange yield,20 to 50%
KLFGHLTSA (synthetic peptide; source gene PHTF2) [KLFGHLTSA (SEQ ID NO: 51)],peptide exchange yield,20 to 50%
GLDVTSLRPFDL (synthetic peptide; source gene FLNA) [GLDVTSLRPFDL (SEQ ID NO: 33)],peptide exchange yield,50 to 75%
SMHQMLDQTL (synthetic peptide; source gene TPM1) [SMHQMLDQTL (SEQ ID NO: 48)],peptide exchange yield,20 to 50%
SLDGFTIQV (synthetic peptide; source gene OAS2) [SLDGFTIQV (SEQ ID NO: 28)],peptide exchange yield,20 to 50%
ALYEYQPLQI (synthetic peptide; source gene MNAT1) [ALYEYQPLQI (SEQ ID NO: 62)],peptide exchange yield,20 to 50%
SLYNLGGSKRISI (synthetic peptide; source gene KRT5) [SLYNLGGSKRISI (SEQ ID NO: 2)],peptide exchange yield,≥ 75%
SIFEGLLSGV (synthetic peptide; source gene GJB5) [SIFEGLLSGV (SEQ ID NO: 7)],peptide exchange yield,20 to 50%
TASAITPSV (synthetic peptide; source gene KRT5) [TASAITPSV (SEQ ID NO: 3)],peptide exchange yield,50 to 75%
NLMASQPQL (synthetic peptide; source gene PKP1) [NLMASQPQL (SEQ ID NO: 5)],peptide exchange yield,50 to 75%
LVRDTQSGSL (synthetic peptide; source gene SERPINH1) [LVRDTQSGSL (SEQ ID NO: 39)],peptide exchange yield,20 to 50%
YVVGGFLYQRL (synthetic peptide; source gene M6PR) [YVVGGFLYQRL (SEQ ID NO: 65)],peptide exchange yield,50 to 75%
FLPPAQVTV (synthetic peptide; source gene NOL6) [FLPPAQVTV (SEQ ID NO: 72)],peptide exchange yield,20 to 50%
LLDEKVQSV (synthetic peptide; source gene TSHZ3) [LLDEKVQSV (SEQ ID NO: 66)],peptide exchange yield,50 to 75%
B9,peptide exchange yield,50 to 75%
NLREGDQLL (synthetic peptide; source gene AHNAK2) [NLREGDQLL (SEQ ID NO: 27)],peptide exchange yield,50 to 75%
